In the supplement of paper PMC12042874:
± gives the uncertainty stated by the source.

Test: amyloid nucleation score (Sup35N fusion, yeast selection) (log enrichment); library NNK3; higher = more nucleation; inactive = no reads after selection
Procedure, shortened: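 On medium lacking adenine and uracil, psi-negative yeast expressing peptides of 20 random codons fused to Sup35N were grown 7 days at 30°C after a 24-hour induction with 100 μM copper sulfate. Illumina sequencing of input and output plasmid inserts gave the reads, and sequences under 100 input reads were excluded. The nucleation score is the DiMSum log enrichment of output over input reads, centred on the mode score of non-aggregating sequences.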

With NIIKSTVIY the amyloid nucleation score was “inactive”.

Substance RGAVCVNFTSRWSWGIGEHH has an amyloid nucleation score of 1.33 ± 0.11.

Substance CSLGLLMVQRERC has an amyloid nucleation score of 1.38 ± 0.098.

With PEYCKAWLRWKPISVYTQVW the amyloid nucleation score was “inactive”.

In the case of VLTVEMLHAWNCG, the amyloid nucleation score is reported as “inactive”.

Work on GFYTVFCIMQSAEGLDGTVW yielded an amyloid nucleation score of 1.26 ± 0.12.

Work on VWIIEK yielded an amyloid nucleation score of 1.99 ± 0.062.

With TLWYSFQKSSSNLTRSLGLK the amyloid nucleation score was “inactive”.

With ALFYHFL the amyloid nucleation score was “inactive”.

TYGQLCIKVTGLGHFYRPMG showed an amyloid nucleation score of 0.922 ± 0.18.

In the case of SYWSYSSTFSILLSDSFAIS, the amyloid nucleation score is reported as “inactive”.

With GFLVNSISFSKSCYEHTIVW the amyloid nucleation score was “inactive”.

With DYCGKRYPSASVKWPECFRG the amyloid nucleation score was “inactive”.

With MTDDRWLRRRVSPCSVRRFS the amyloid nucleation score was “inactive”.

In the case of ICKRYYLPINFRG, the amyloid nucleation score is reported as “inactive”.

Work on WIDFLSRLTIRGSDMYHQEY yielded an amyloid nucleation score of 0.37 ± 0.29.

EMVLGWSARFCDK showed an amyloid nucleation score of 1.65 ± 0.088.

With SNDMRGLVGEEIGFLSWN the amyloid nucleation score was “inactive”.

In the case of SLPWVIF, the amyloid nucleation score is reported as “inactive”.

For MIMTMTAGFFLELLW, the amyloid nucleation score was “inactive”.

For EPDFEHIVCAFMGSTTGYYW, the amyloid nucleation score was “inactive”.

In the case of FCGIYCKAINSFAVDLMPWI, the amyloid nucleation score is reported as “inactive”.

In the case of GLEGLLVLWFQCSFTVAALR, the amyloid nucleation score is reported as “inactive”.

TDVRFDRLTCCNSLIKITRW showed an amyloid nucleation score of 1.14 ± 0.082.

In the case of CSISSKIFLLLMNWLCWSCG, the amyloid nucleation score is reported as “inactive”.

With SYKPLVMWLMSGVSASGLMC the amyloid nucleation score was “inactive”.

With LARGDYVMKDMVLAHINDLC the amyloid nucleation score was “inactive”.

With DHVLNRPYYDNNLKYYDTWL the amyloid nucleation score was “inactive”.

For YLYGGVLGVSSDEGLADGKD, the amyloid nucleation score was “inactive”.

In the case of AVTKLILFVVSGGMLRVLEF, the amyloid nucleation score is reported as “inactive”.

Substance LNEVTVLTIMMCLRS has an amyloid nucleation score of 0.971 ± 0.16.

YMVMFAPSFSWRVSVQDKGN showed an amyloid nucleation score of 3.08 ± 0.063.

For PFDHTSHNVVRKLLSSELLR, the amyloid nucleation score was “inactive”.

In the case of NHLSPMRTKLYLKETNPSSA, the amyloid nucleation score is reported as “inactive”.

For YLDRTSSMVTLVVSRGIF, the amyloid nucleation score was “inactive”.

With VVVIHE the amyloid nucleation score was “inactive”.

With TLKCQHCIHVLGCVDMLTNF the amyloid nucleation score was 1.46 ± 0.11.

With DSFLVYIKSCIIILTGLNLY the amyloid nucleation score was “inactive”.

With GYYYNSMNFRWFIKMVVMVR the amyloid nucleation score was “inactive”.

With GGCLGICTAANLRSGNRITR the amyloid nucleation score was “inactive”.

With DVNHVMNMNIGSNRN the amyloid nucleation score was “inactive”.

With LSLDLSPSNLNPRWFDTPFH the amyloid nucleation score was “inactive”.

For GAYSGLCSILGSFLGLSAVK, the amyloid nucleation score was “inactive”.

With LFRLYRLL the amyloid nucleation score was “inactive”.

SFFIALVNIFRCLN gave an amyloid nucleation score of 2.56 ± 0.059.

Substance TIYLDNTQLSLFRIGPVARR has an amyloid nucleation score of 1.9 ± 0.094.

With KWWCHLWVIGVGFALGLYTG the amyloid nucleation score was “inactive”.

For VKPSLF, the amyloid nucleation score was -0.567 ± 1.

In the case of QDLGECN, the amyloid nucleation score is reported as “inactive”.

YVCVPCPCELSIQCCVTITF showed an amyloid nucleation score of 2.01 ± 0.061.

In the case of IEGSKSDNIGIVHDFMFES, the amyloid nucleation score is reported as “inactive”.

IYYPHTFIWDFVDEGVAPHY gave an amyloid nucleation score of 1.56 ± 0.12.

Work on DSSSLRSNVLVTVCVLVSSI yielded an amyloid nucleation score of 0.375 ± 0.22.

Substance ACLQRVQVKIHLGFTQTSFV has an amyloid nucleation score of 0.487 ± 0.36.

With IRTGDLVFVWYIRVTNTIPC the amyloid nucleation score was “inactive”.

In the case of GYLQGIYYGFTSCRKTSNQD, the amyloid nucleation score is reported as “inactive”.

With FFLGVSDSMKFLYLMPTEFD the amyloid nucleation score was “inactive”.

Work on LKVCNISDWFNIACSVMSFH yielded an amyloid nucleation score of 1.93 ± 0.086.

In the case of VNYRN, the amyloid nucleation score is reported as “inactive”.

For QDALVSCWKFGAVSDQCDYW, the amyloid nucleation score was “inactive”.

For PNGHLLYMYFFMRDGSSDRG, the amyloid nucleation score was “inactive”.

With CDFTKSNDTCMDTASMSLLV the amyloid nucleation score was “inactive”.

Work on YGMLFYIYYMPRIFQYAVNL yielded an amyloid nucleation score of 1.56 ± 0.065.

For ATAVMVRILQRACTFLDAKS, the amyloid nucleation score was “inactive”.

With YRPAALSYQTRVCGTYWNDR the amyloid nucleation score was “inactive”.

In the case of REHLLDHTRLYC, the amyloid nucleation score is reported as “inactive”.

In the case of RSDNESGNV, the amyloid nucleation score is reported as “inactive”.

LNSVKAGFINTKDPVMDSMC showed an amyloid nucleation score of -0.254 ± 0.84.

In the case of RYLTNLWNYTFLINRAMLTY, the amyloid nucleation score is reported as “inactive”.

For YSSANNCNWC, the amyloid nucleation score was 1.7 ± 0.077.

With SAWQPWMKDRSS the amyloid nucleation score was “inactive”.

With VIRNYTIEIMWVWDQKADVQ the amyloid nucleation score was “inactive”.

With QYNPLDCCNVRLKLYGPLMV the amyloid nucleation score was “inactive”.

In the case of FLSIRFV, the amyloid nucleation score is reported as “inactive”.

For DNPTYRYTICGMTLEHPKEE, the amyloid nucleation score was “inactive”.

MIFSRAISDGSFLTVFV showed an amyloid nucleation score of -0.32 ± 0.8.

With YTKMGTRLAFFWIRMMMRGR the amyloid nucleation score was “inactive”.

In the case of FVQRWCYGGKCNGCVGSSGG, the amyloid nucleation score is reported as “inactive”.

In the case of APSNGRE, the amyloid nucleation score is reported as “inactive”.

For IDYSNVYSISRPSMFCWRNN, the amyloid nucleation score was “inactive”.

For LLMYARYSG, the amyloid nucleation score was 1.52 ± 0.11.

With GCIVFCCRTLVNFDVVVYWF the amyloid nucleation score was “inactive”.

With SWGPLINLRFQLLARCTPGL the amyloid nucleation score was “inactive”.

For GSQRLLALWNY, the amyloid nucleation score was “inactive”.

In the case of FILMLVTKLRAHLRGEIRGE, the amyloid nucleation score is reported as “inactive”.

In the case of QLRGGVHMMHVCACGVDWWM, the amyloid nucleation score is reported as “inactive”.

In the case of VKVVNTSCPMDGLPNCLTRR, the amyloid nucleation score is reported as “inactive”.

For YYAPVCYLSTKQGKARRPPP, the amyloid nucleation score was “inactive”.

In the case of SYVLLHHLLVMSWVRV, the amyloid nucleation score is reported as “inactive”.

For MLCRPTGRGLDGQCERLTVR, the amyloid nucleation score was “inactive”.

In the case of SSNVPFVWCIPLMIAGIVGH, the amyloid nucleation score is reported as -0.348 ± 0.75.

With VSFLMIYLSSNCSVSVRYHY the amyloid nucleation score was “inactive”.

For LYVFYCVTHLHSIGPGQCLR, the amyloid nucleation score was “inactive”.

In the case of LLSETAHLFVFT, the amyloid nucleation score is reported as “inactive”.

For YWSIKELWRFRQLVWRKYIV, the amyloid nucleation score was “inactive”.

In the case of SSVGTAFLYYRKYGICADG, the amyloid nucleation score is reported as “inactive”.

In the case of NFSMCINRNKVPCVHLLDTL, the amyloid nucleation score is reported as “inactive”.

In the case of TSDSMSLNFVTWVNQI, the amyloid nucleation score is reported as “inactive”.

With SYLSHNFNGECCTSLLMDNL the amyloid nucleation score was “inactive”.

For MDLITFGKKMREAQARILLV, the amyloid nucleation score was “inactive”.

With SLIFQDGGDNVNDLKVCVDY the amyloid nucleation score was “inactive”.

For WGVGTPVRLWFIEANPVGHV, the amyloid nucleation score was “inactive”.

With YSHNLWLA the amyloid nucleation score was “inactive”.

In the case of SSRTCK, the amyloid nucleation score is reported as “inactive”.

KEVMFR showed an amyloid nucleation score of 1.64 ± 0.12.

For YGREMRSSMMNGGYLIIMKW, the amyloid nucleation score was “inactive”.

With PCASLM the amyloid nucleation score was “inactive”.

With TVSCLLKKVSRIVTVCVEWD the amyloid nucleation score was “inactive”.

In the case of WSVVRRAELSNSVKFEDHGM, the amyloid nucleation score is reported as “inactive”.

With FVIGRI the amyloid nucleation score was “inactive”.

In the case of VQLSMPGFGDWCRIRWVTAG, the amyloid nucleation score is reported as “inactive”.

With VDKWDCLSYSNIVGLMRLDV the amyloid nucleation score was “inactive”.

MNRKVVANSGDRDGIVRTSS gave an amyloid nucleation score of 0.278 ± 0.43.

With NSPTYYPHSFLMTYKALSFT the amyloid nucleation score was “inactive”.

With VSCYVTHISYRSSFGSMFYS the amyloid nucleation score was “inactive”.

YGYSTSFSG gave an amyloid nucleation score of 0.586 ± 0.28.

With QLGFWKELSSSHS the amyloid nucleation score was “inactive”.

With VMLNLQI the amyloid nucleation score was 1.18 ± 0.17.

For RLSMPPRIFMPNHNCIDHAS, the amyloid nucleation score was “inactive”.

With CRENKEYIQGSDTLNFHYPM the amyloid nucleation score was “inactive”.

In the case of RYEVPGTSFLNM, the amyloid nucleation score is reported as “inactive”.

With DLFWLGFNWHLGCRFYVGAN the amyloid nucleation score was “inactive”.

For VDVLFC, the amyloid nucleation score was “inactive”.

For GRKDLKYIQSGDMQFQSSKW, the amyloid nucleation score was 0.138 ± 1.

With YNYKSLMHLIGYDNRIAESR the amyloid nucleation score was “inactive”.

In the case of FLLMCLMRCTRMETRCISAC, the amyloid nucleation score is reported as “inactive”.

In the case of YVVSYPVGVRSNTHLLRIWR, the amyloid nucleation score is reported as “inactive”.

With RVRNSCSVIGMWMLVYSRMI the amyloid nucleation score was “inactive”.

For WGGVGKKMKRQRTAGTSRSG, the amyloid nucleation score was “inactive”.

With DYDRIR the amyloid nucleation score was “inactive”.

In the case of SESMDGNFQKCLSAVCALIE, the amyloid nucleation score is reported as “inactive”.

With NTFDTVLFRDLVYL the amyloid nucleation score was “inactive”.

LVNTCKNSFLVVLHF showed an amyloid nucleation score of 2.09 ± 0.065.

In the case of NYVLGGCNLGSSGCRVRLSC, the amyloid nucleation score is reported as “inactive”.

For YHFLACCKLVGRRWWFGLQR, the amyloid nucleation score was “inactive”.

With FSRKDTYFLMGIFKLNLRYL the amyloid nucleation score was “inactive”.

YCQESRSCWAQSYICEGVSL showed an amyloid nucleation score of -0.253 ± 1.1.

With WLLLLSK the amyloid nucleation score was “inactive”.

In the case of LSYFSLFYADGRHFRCLLDN, the amyloid nucleation score is reported as “inactive”.

With CERKQVYNDRRINS the amyloid nucleation score was “inactive”.

In the case of GHNRYIDLSIEIRAL, the amyloid nucleation score is reported as -0.61 ± 1.1.

With SYFNRYRCSSCHKPGYDHTW the amyloid nucleation score was “inactive”.

Work on GISTGISWQLCGHSGDWYWW yielded an amyloid nucleation score of -0.658 ± 1.9.

For VSGWFDWDFLDDNGQYWLHV, the amyloid nucleation score was “inactive”.

With FGLGQIRFSHIICLNLILSL the amyloid nucleation score was 2.29 ± 0.056.

SQKRPMCFSCWTHMVFHSWF showed an amyloid nucleation score of -0.257 ± 0.46.

In the case of SLAIMCCKIWPLLIMYILIT, the amyloid nucleation score is reported as “inactive”.

For ILIRREFGLFTNFSMYGSKA, the amyloid nucleation score was “inactive”.

In the case of HWGRDFLGFVTAFDGCVSQL, the amyloid nucleation score is reported as “inactive”.

For MVGAPDV, the amyloid nucleation score was “inactive”.

For FLSKTLYIVVSHGVGTSGTG, the amyloid nucleation score was “inactive”.

With CCGVLQRMKISQKVN the amyloid nucleation score was “inactive”.

For HDLNWNSMVRCRVNVSSVIV, the amyloid nucleation score was “inactive”.

In the case of LYCECYSSLLCYGRLPAKTR, the amyloid nucleation score is reported as “inactive”.

With RSWSLCIGFMFFVRNS the amyloid nucleation score was “inactive”.

With SLTLGCSDLGKGCREETYAG the amyloid nucleation score was “inactive”.

For NISWVAFMIVLHLDRLNMF, the amyloid nucleation score was “inactive”.
